Target: T1, rhCD6FC/Chimera (R and D systems) (human, UniProt P30203 25-398)
T1 construct: Bought reagent (R and D systems), coated on the ELISA plate; also called CD6 receptor; Fc part of the bought chimera not given
T1 sequence (looked up): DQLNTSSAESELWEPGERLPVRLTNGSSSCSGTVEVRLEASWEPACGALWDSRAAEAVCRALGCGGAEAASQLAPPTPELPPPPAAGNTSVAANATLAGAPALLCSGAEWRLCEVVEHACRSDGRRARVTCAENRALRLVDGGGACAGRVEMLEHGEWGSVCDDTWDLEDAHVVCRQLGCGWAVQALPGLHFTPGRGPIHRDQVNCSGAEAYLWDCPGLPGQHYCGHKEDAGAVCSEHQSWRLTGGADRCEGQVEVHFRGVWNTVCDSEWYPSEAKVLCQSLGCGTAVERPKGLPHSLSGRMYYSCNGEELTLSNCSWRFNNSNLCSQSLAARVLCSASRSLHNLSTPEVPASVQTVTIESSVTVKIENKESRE
Test: ELISA, CD6-Fc coated plate, fixed T1h with varying ALCAM-Fc as competitor
Experimental: When varying concentrations of ALCAM-Fc was incubated along with a fixed concentration of T1h in a CD6-Fc coated ELISA plate, T1h was detected at all concentration of ALCAM-Fc.
The rhCD6FC/Chimera (R and D systems) (100 ≈g/ml) was diluted in coating buffer and 100 ≈l was added to each well of a 96 well Nunc-Maxisorp plate. The plate was then incubated at 4éC overnight. The Plate was washed thrice with PBS Tween 20. Subsequently, 200 ≈l of blocking solution (2% BSA+0.1% Tween 20 in 1×PBS) was added and incubated for 1 hour at 37éC. After incubation, the plate was washed again with PBS Tween thrice, followed by the addition of T1h monoclonal antibody (0.2 mg/ml) and .rhA LCAMFc (R and D systems) at varying concentrations. This was then incubated for an hour at 37éC. The plate was washed 3 times subsequently with PBS Tween. To the wells 200 ≈l of anti human IgG (Fab)₂ ALP (1:20000) diluted in blocking buffer was added and incubated for 1 hour at 37éC. The plate was washed thrice with PBS tween and 200 ≈l of p-Nitrophenyl Phosphate (PNPP) substrate is added to each well and incubated at 37éC till color develops around 15 minutes. Reading was taken at 405 nm using a BIOTEK Micro Plate Reader.

binding result: binds
B1: humanized IgG1 isotype anti-CD6 monoclonal antibody (T1h) (antibody, V domains shown)
VH: EVQLVESGGGLVKPGGSLKLSCAASGFKFSRYAMSWVRQAPGKRLEWVATISSGGSYIYYPDSVKGRFTISRDNVKNTLYLQMSSLRSEDTAMYYCARRDYDLDYFDSWGQGTLVTVSS
VL: DIQMTQSPSSLSASVGDRVTITCKASRDIRSYLTWYQQKPGKAPKTLIYYATSLADGVPSRFSGSGSGQDYSLTISSLESDDTATYYCLQHGESPFTLGSGTKLEIK
notes: also called humanized IOR-T1; Itolizumab

From patent US20190241670A1 (BIOCON, published 2019)
